Here are results for 167 variants from the RNAGym collection of RNA variant scans (doi:10.7554/elife.80360).

B1: Hairpin Ribozyme (parent)
chain: GUCCUCUUUCACGUGCGCGUGAAAGAGAGAAGUGAACCAGAGAAACACACGUUGUGGUAUAUUACCUGGUA

In the data set the parent is B1. Nature of the data set: self-cleavage, relative activity (ratio to wild type); higher = more cleavage; co-transcriptional.
As to A26G U70C, the self-cleavage was 0.89. Consider C12U A24G, for which the self-cleavage turned out to be 0.892. In the case of A61C, the self-cleavage worked out at 0.214. With C18G A41C, the self-cleavage turned out to be 0.952. To C46A G68A belongs 0.12; to G42A U55G, 0.249; to U8G U20G, 0.614. In the case of A39U C46A, the self-cleavage came to 0.166. Consider G32U A35G, for which the self-cleavage turned out to be 0.0968. As to G27U A30U, the self-cleavage stood at 0.116.

Turning to A23G C37G, the self-cleavage was found to be 0.311.

As to A43C C66G, the self-cleavage worked out at 0.0604.

Consider G40U U70G, for which the self-cleavage was found to be 0.0618. For U52C U58G, the self-cleavage came out at 0.606. To U7A G15U belongs 0.844; to A30G U52G, 0.186. Regarding G42C U55G, the self-cleavage came out at 0.173. With G1A G57C the figure was 0.163; with C37A U63G, 0.131; with A22C C66G, 0.0576.

In the case of A35U A49C, the self-cleavage worked out at 0.17. Turning to G13C C66A, the self-cleavage turned out to be 0.0627.

Take G29A G32U: the self-cleavage is 0.0536. To U14A A26U belongs 0.503; to C6G A28C, 0.145; to U8A G27A, 0.236. As to A22U A39U, the self-cleavage was determined as 0.359.

Regarding A23U G42A, the self-cleavage came to 0.214. To C10A A59G belongs 0.149. Turning to C50U A64U, the self-cleavage is 0.0365.

U5G G32U: the self-cleavage is 0.132. With U33A A43U the figure was 0.115; with A26U A31G, 0.389; with U5C U55A, 0.21. G17A G27U: the self-cleavage turned out to be 0.324. To U33G U70A belongs 0.121. In the case of A31C A61G, the self-cleavage is 0.0877. To C3A G17C belongs 0.375. As to U5C A49C, the self-cleavage is 0.377. On to G21A U70A, for which the self-cleavage turned out to be 0.742. G42A A71C: the self-cleavage was determined as 0.566. For the variant C10A A31G, the self-cleavage amounted to 0.533. To G1U C65A belongs 0.0897; to C18A G25U, 0.761; to C50U G56U, 0.121. Regarding A23C A61C, the self-cleavage was 0.143. With G21A A47C the figure was 0.402; with U62A U70A, 0.143; with A30C A44U, 0.106.

G13U U33G: the self-cleavage was found to be 0.0972. To G51A G56A belongs 0.197; to C37U U58C, 0.743; to C37G U52A, 0.358.

On to A11G A24U, for which the self-cleavage stood at 0.968. With A47G A59C the figure was 0.134; with G51C C66U, 0.452.

Consider G13C G68A, for which the self-cleavage came to 0.219. For the variant A30C G32U, the self-cleavage was found to be 0.188. With C50U A59C the figure was 0.166; with C46G C50G, 0.217; with C3U C6G, 0.288. As for C37U G56U, the self-cleavage was 0.13.

Turning to U7A A24U, the self-cleavage was 1.15. To G40U G57U belongs 0.153; to A31C C50A, 0.139. With C37U A39G the figure was 0.269; with G42A C46A, 0.152. C46U G51C: the self-cleavage was 0.176. To U7A U53A belongs 0.879; to U9C A43G, 0.0922; to C16A U62A, 0.199. With C3G U20A, the self-cleavage was 0.222.

Turning to C4G U20G, the self-cleavage was determined as 0.22. To A45U C66G belongs 0.236.

Consider C4A U63G, for which the self-cleavage stood at 0.269.

On to G34A U63A, for which the self-cleavage is 0.259. To G17U A41G belongs 1.08; to A11U A35G, 0.867; to A47G U60C, 0.135. To A36U C48G belongs 0.182; to A28G C46U, 0.137; to U2A G57A, 0.136.

As for G17A C38A, the self-cleavage stood at 0.169. For the variant G1U G29C, the self-cleavage is 0.109. With G40C G69U the figure was 0.128. Regarding A11G C12G, the self-cleavage stood at 0.788. In the case of G27A U67A, the self-cleavage was found to be 0.0995. To G25U A45G belongs 0.118.

With G1C A61G, the self-cleavage was 0.202.

For the variant U9A A36G, the self-cleavage came out at 0.797. With G32A A71U the figure was 0.155. With G27U G69U the figure was 0.152; with A26C A43G, 0.144. Turning to C3G A22U, the self-cleavage stood at 0.246.

With C4G U55A, the self-cleavage amounted to 0.119. On to U14A C37G, for which the self-cleavage amounted to 0.295. To C12A G57C belongs 0.17; to A35C A45C, 0.16. With G17C U67C the figure was 0.197; with U14G G19A, 0.651; with G27A A71C, 0.95. Regarding U8A G34A, the self-cleavage turned out to be 0.98. As for A41G U67G, the self-cleavage is 0.5. With G15A C18G the figure was 0.886; with C3A A71G, 0.715; with U14G G32C, 0.0712. On to G40A A71C, for which the self-cleavage was 0.574. For U5G G40A, the self-cleavage came to 0.0651. With G32C A43U the figure was 0.127; with U7A G13C, 0.778; with G1A C18A, 0.185.

For the variant A47G G57C, the self-cleavage is 0.159.

For G56A C66G, the self-cleavage was determined as 0.114. As to G1A C38U, the self-cleavage was 0.115. To C38G A47U belongs 0.171; to C65U C66U, 0.185. Regarding C4A A28U, the self-cleavage was 0.174. With G51U A64G the figure was 0.544; with U9C U67A, 0.174. To A30U U63G belongs 0.0835; to G19A A35G, 1.01.

In the case of C3A U53C, the self-cleavage is 0.664.

Take C37U G54C: the self-cleavage was found to be 0.338. C48A G57C: the self-cleavage turned out to be 0.148. With A30C U67G the figure was 0.109; with G13A G25A, 0.484; with G56C G57U, 0.153. To A24U A64C belongs 0.142; to G15A G54U, 0.737. As for C3G G19A, the self-cleavage worked out at 0.2. Take A39U G54C: the self-cleavage came out at 0.0503.

C4G U53G: the self-cleavage turned out to be 0.117. Regarding C4G U53A, the self-cleavage was found to be 0.15. Turning to A23G A44C, the self-cleavage was 0.0975.

In the case of C18U G40C, the self-cleavage worked out at 0.0598. Take U60A G68U: the self-cleavage is 0.189.

For C38G C48A, the self-cleavage was determined as 0.202. To U9G G19U belongs 0.546. With A44C A45G the figure was 0.208; with G17C G19C, 0.68. With G17C G19A the figure was 0.836; with U58C U62C, 0.369. As to A44U G69A, the self-cleavage was 0.15. To C16A U55C belongs 0.288.

Consider A36C A64C, for which the self-cleavage was 0.11. With G21U A26C the figure was 0.123. Take A22G G25C: the self-cleavage was 0.547. To A61U G68C belongs 0.191; to U52G A71G, 0.654.

G13C U33A: the self-cleavage was determined as 0.0736.

As for A35G A43U, the self-cleavage was found to be 0.223. Take C4G U33A: the self-cleavage is 0.154.

As for U2A G29A, the self-cleavage was found to be 0.0918.

As to A35G G69C, the self-cleavage amounted to 0.204. With C18U C50A the figure was 0.314; with A35C A71U, 0.668. With C12G C38A the figure was 0.148; with C16G A22G, 0.828; with G29U A41G, 0.082. With U7C U55G the figure was 0.344. Turning to U7C U55A, the self-cleavage stood at 0.167. To G17A U58A belongs 0.709; to G32U U58G, 0.137; to C3G U53A, 0.212. With C50G G54U the figure was 0.441.

A22G C66U: the self-cleavage was found to be 0.453. To A11U U53A belongs 0.679.
